In one assay the test system is estrogen receptor. The assay is described as follows: Estrogen receptor activity, ERE-TK-CAT reporter. The class given is cell-based. The conditions noted are these: control and MCF-7^EphA2 cells, tamoxifen 10^−6 M.
In another assay the test system is control MCF-7 cells. Nature of the assay: Colony formation in soft agar, control MCF-7 cells. The class given is cell-based. Here is the method:
(§1) Tumor cells were suspended in soft agar. Colony formation in soft agar was assayed as described in Zelinski et al. (2001, Cancer Res. 61: 2301-6). Antibodies or a control solution (PBS) was included in bottom and top agar solutions. […] Colony formation was scored microscopically using an Olympus CK-3 inverted phase-contrast microscope outfitted with a 40× objective. Clusters containing at least three cells were scored as a positive. The average number of colonies per high-powered field is shown. Ten separate high-power microscopic fields were averaged in each experiment, and the results shown are representative of at least three separate experiments.
(§2) Growth assays were conducted as follows. MCF-7^neo (control cells) or MCF7^EphA2 cells were seeded in 96-well plates. […] Colony formation in soft agar was performed as previously described (Zelinski et al., 2001, Cancer Res. 61: 2301-6) and scored microscopically, defining clusters of at least three cells as a positive. The data represent the average of ten separate high-power microscopic fields from each sample and representative of at least three separate experiments. Error bars represent the standard error of the mean of at least three different experiments as determined using Microsoft Excel software.
Sensitivity of MCF-7^EphA2 cells to tamoxifen was measured. […]

The test system of assay [1] is MCF-7^EphA2 cells. The assay is described as follows: Colony formation in soft agar, MCF-7^EphA2 cells. It is filed as cell-based. Here is the method: as §1
(§3) A549 malignant lung cancer cells were incubated with either 10 μg/ml or 2.5 μg/ml of EA5 or EA2 monoclonal antibodies or a control (PBS). […] Benign MCF-7 breast epithelial tumor cells were converted to malignant cells by the overexpression of EphA2 (MCF-7^EphA2). Both tumor cell types were incubated with either EA5 monoclonal antibodies or a control (PBS). […] Results are reported as colonies per high-powered field (HPF).
as §2
Sensitivity of MCF-7^EphA2 cells to tamoxifen was measured.
Growth MCF-7^EphA2 cells which had decreased EphA2 expression levels was assayed in soft agar.

For assay [2], the system named is MCF-7^EphA2 cells. Nature of the assay: Tumorigenic potential of MCF-7^EphA2 vs MCF-7^neo cells in mammary fat pad under tamoxifen. The class given is in vivo, athymic (nu/nu) mice. The conditions noted are these: MCF-7^EphA2 vs control MCF-7^neo; tamoxifen 1 mg oral gavage 6 days per week, supplemental estrogen.
Procedure: Six to eight week-old athymic (nu/nu) mice were purchased from Harlan Sprague Dawley (Indianapolis, Ind.). When indicated, a controlled release estradiol pellet (0.72 mg 17β-estradiol, 60-day formulation) was injected subcutaneously via a sterile 14-gauge trocar 24 hours prior to tumor implantation and pellets were replaced every 60 days for those experiments spanning >60 days in duration. 1×10^6 MCF-7^neo or MCF7^EphA2 cells were injected into the mammary fat pad under direct visualization. When indicated, tamoxifen (1 mg) was administered by oral gavage 6 days per week.
For assay [3], the target named is T1, EphA2 (Homo sapiens, UniProt P29317). The assay is described as follows: EphA2 tyrosine phosphorylation and degradation in A549 cells (immunoprecipitation / western blot). The class given is cell-based. As to conditions: A549 monolayers. Set-up: endogenous in cells. Here is the method:
Western blot analyses and immunoprecipitations were performed as described previously (Zantek et al., 1999, Cell Growth Diff. 10: 629-38). Briefly, detergent extracts of cell monolayers were extracted in Tris-buffered saline containing 1% Triton X-100 (Sigma, St. Louis, Mo.). After measuring protein concentrations (BioRad, Hercules, Calif.), 1.5 mg of cell lysate was immunoprecipitated, resolved by SDS-PAGE and transferred to nitrocellulose (Protran, Schleicher and Schuell, Keene, N.H.). Antibody binding was detected by enhanced chemiluminescence (Pierce, Rockford, Ill.) and autoradiography (Kodak X-OMAT; Rochester, N.Y.).
Similar experiments were conducted with A549 cells. Monolayers of A549 cells were incubated at 37° C. in the presence of EA5 or EA2 or control (PBS) for either 10 minutes (FIGS. 2A-2B) or 5 hours (FIGS. 2C-2D). Cell lysates were then immunoprecipitated with an EphA2-specific antibody (D7), resolved by SDS-PAGE and subjected to western blot analysis with a phosphotyrosine-specific antibody (4G10, purchased from Upstate Biologicals, Inc., Lake Placid, N.Y.) (FIGS. 2A, 2C). The membranes were stripped and re-probed with the EphA2-specific antibody used in the immunoprecipitation (D7) as a loading control (FIGS. 2B, 2D). […] (FIG. 2D).
Background: In western blotting, separated proteins are transferred to a membrane and probed.

For assay [4], the system named is A549 malignant lung cancer cells. Nature of the assay: Colony formation in soft agar, A549 cells. It is filed as cell-based. As to conditions: 10 μg/ml or 2.5 μg/ml, 7 days at 37° C., vs PBS. Here is the method:
Tumor cells were suspended in soft agar. Colony formation in soft agar was assayed as described in Zelinski et al. (2001, Cancer Res. 61: 2301-6). Antibodies or a control solution (PBS) was included in bottom and top agar solutions. Cells were suspended in soft agar for 7 days at 37° C. in the presence of purified antibody or control solution (PBS), administered at the time of suspension. Colony formation was scored microscopically using an Olympus CK-3 inverted phase-contrast microscope outfitted with a 40× objective. Clusters containing at least three cells were scored as a positive. The average number of colonies per high-powered field is shown. Ten separate high-power microscopic fields were averaged in each experiment, and the results shown are representative of at least three separate experiments.
as §3

The target in assay [5] is T1, EphA2. The assay is described as follows: EphA2 tyrosine phosphorylation and degradation in MDA-MB-231 cells (immunoprecipitation / western blot). As to conditions: MDA-MB-231 monolayers. More on the design: endogenous in cells; host or cells: MDA-MB-231; MCF-10A. The class given is cell-based. Here is the method: EphA2 antibodies promoted tyrosine phosphorylation and degradation of EphA2 in MDA-MB-231 (FIGS. 1A-1C) cells. Monolayers of cells were incubated in the presence of EA5 (FIGS. 1A-1B, lanes 2, 3) or EA2 (FIGS. 1A-1B, lanes 4, 5) or control (FIGS. 1A-1B, lane 1) for 8 minutes at 37° C. Cell lysates were then immunoprecipitated with an EphA2-specific antibody (D7, purchased from Upstate Biologicals, Inc., Lake Placid, N.Y. and deposited with the American Type Tissue Collection on Dec. 8, 2000, and assigned ATCC number PTA 2755), resolved by SDS-PAGE and subjected to western blot analysis with a phosphotyrosine-specific antibody (4G10, purchased from Upstate Biologicals, Inc., Lake Placid, N.Y.) (FIG. 1A). The membranes were stripped and re-probed with the EphA2-specific antibody used in the immunoprecipitation (D7) as a loading control.
Western blot analyses and immunoprecipitations were performed as described previously (Zantek et al., 1999, Cell Growth Diff. 10: 629-38). Briefly, detergent extracts of cell monolayers were extracted in Tris-buffered saline containing 1% Triton X-100 (Sigma, St. Louis, Mo.). […] Antibody binding was detected by enhanced chemiluminescence (Pierce, Rockford, Ill.) and autoradiography (Kodak X-OMAT; Rochester, N.Y.). […]

Assay [6] has as its target T1, EphA2. The assay is described as follows: Immunofluorescent staining of MDA-MB-231 and MCF-10A cells. The class given is binding. More on the design: endogenous in cells; host or cells: MDA-MB-231; MCF-10A. The text has this:
The epitope of the EphA2 antibodies were characterized. EA5 and EA2 selectively bind to malignant cells. The anti-EphA2 monoclonal antibodies EA5 and EA2 bind malignant MDA-MB-231 breast epithelial tumor cells (FIGS. 11A-11B) more strongly than benign MCF-10A breast epithelial tumor cells (FIGS. 11C-11D) as shown by immunofluorescent staining. […] The anti-EphA2 monoclonal antibody EA5 identified malignant prostate cancer cells in formalin-fixed, paraffin-embedded archival clinical specimens (FIG. 12).
EA5 preferentially binds an EphA2 epitope exposed on cancer cells but not non-cancer cells. Non-transformed MCF-10A cells or transformed MDA-MB-231 cells were incubated with 10 μg/ml EA2 at 4° C. for 30 min. prior to fixation in a 3% formalin solution and immunolabeling with fluorophore-conjugated anti-mouse IgG.

The target in assay [7] is T2, EphA2-Ephrin A1-Fc complex (Homo sapiens, UniProt P29317).
T2 construct: consisting of the extracellular domain of EphA2 linked to human IgG1 constant region
T2 sequence (P29317 24-537 limits assumed, one chain of several): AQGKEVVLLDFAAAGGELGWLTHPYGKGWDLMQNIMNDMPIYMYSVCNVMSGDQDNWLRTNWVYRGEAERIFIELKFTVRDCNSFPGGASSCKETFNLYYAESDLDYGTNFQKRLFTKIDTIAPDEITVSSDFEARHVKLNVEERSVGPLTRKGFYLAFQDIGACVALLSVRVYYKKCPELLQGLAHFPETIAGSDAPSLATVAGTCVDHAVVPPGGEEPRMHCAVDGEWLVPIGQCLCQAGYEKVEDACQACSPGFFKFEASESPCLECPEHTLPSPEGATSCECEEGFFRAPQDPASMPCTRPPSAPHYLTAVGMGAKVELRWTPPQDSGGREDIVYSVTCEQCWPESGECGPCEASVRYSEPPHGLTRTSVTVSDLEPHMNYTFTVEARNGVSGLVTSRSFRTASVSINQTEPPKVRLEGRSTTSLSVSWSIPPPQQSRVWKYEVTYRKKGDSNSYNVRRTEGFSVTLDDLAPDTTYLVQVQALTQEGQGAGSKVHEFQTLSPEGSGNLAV
Nature of the assay: Binding to EphA2-Ephrin A1-Fc complex on microtiter plate. The conditions noted are these: EphA2-Fc bound to immobilized Ephrin A1-Fc. Here is the method:
(§4) A microtiter plate was coated with […] Ephrin A1-Fc overnight at 4° C. A fusion protein consisting of the extracellular domain of EphA2 linked to human IgG1 constant region (EphA2-Fc) was incubated with and bound to the immobilized Ephrin A1-Fc. Biotinylated Ephrin A1-Fc or EA5 was incubated with the EphA2-Ephrin A1-Fc complex and amount of binding was measured.

Assay [8] addresses T2, EphA2-Ephrin A1-Fc complex. Nature of the assay: Competition for labeled EA5 on EphA2-Ephrin A1-Fc complex. The class given is binding. The conditions noted are these: biotinylated EA5 10 μg/ml, 30 min. Here is the method: as §4
The EphA2-Ephrin A1-Fc complex was prepared as described above. Biotinylated EA5 (10 μg/ml) was then incubated with the complex for 30 min. Unlabeled competitor was incubated with EphA2-Ephrin A1-Fc-EA5 complex in the indicated amount. Unlabeled EA5 could displace the labeled EA5 at concentrations of 100 ng/ml or greater.

The record followed here is US20050152899A1, “EphA2 agonistic monoclonal antibodies and methods of use thereof” (priority 2002, published 2005).

T1 sequence (P29317 24-976): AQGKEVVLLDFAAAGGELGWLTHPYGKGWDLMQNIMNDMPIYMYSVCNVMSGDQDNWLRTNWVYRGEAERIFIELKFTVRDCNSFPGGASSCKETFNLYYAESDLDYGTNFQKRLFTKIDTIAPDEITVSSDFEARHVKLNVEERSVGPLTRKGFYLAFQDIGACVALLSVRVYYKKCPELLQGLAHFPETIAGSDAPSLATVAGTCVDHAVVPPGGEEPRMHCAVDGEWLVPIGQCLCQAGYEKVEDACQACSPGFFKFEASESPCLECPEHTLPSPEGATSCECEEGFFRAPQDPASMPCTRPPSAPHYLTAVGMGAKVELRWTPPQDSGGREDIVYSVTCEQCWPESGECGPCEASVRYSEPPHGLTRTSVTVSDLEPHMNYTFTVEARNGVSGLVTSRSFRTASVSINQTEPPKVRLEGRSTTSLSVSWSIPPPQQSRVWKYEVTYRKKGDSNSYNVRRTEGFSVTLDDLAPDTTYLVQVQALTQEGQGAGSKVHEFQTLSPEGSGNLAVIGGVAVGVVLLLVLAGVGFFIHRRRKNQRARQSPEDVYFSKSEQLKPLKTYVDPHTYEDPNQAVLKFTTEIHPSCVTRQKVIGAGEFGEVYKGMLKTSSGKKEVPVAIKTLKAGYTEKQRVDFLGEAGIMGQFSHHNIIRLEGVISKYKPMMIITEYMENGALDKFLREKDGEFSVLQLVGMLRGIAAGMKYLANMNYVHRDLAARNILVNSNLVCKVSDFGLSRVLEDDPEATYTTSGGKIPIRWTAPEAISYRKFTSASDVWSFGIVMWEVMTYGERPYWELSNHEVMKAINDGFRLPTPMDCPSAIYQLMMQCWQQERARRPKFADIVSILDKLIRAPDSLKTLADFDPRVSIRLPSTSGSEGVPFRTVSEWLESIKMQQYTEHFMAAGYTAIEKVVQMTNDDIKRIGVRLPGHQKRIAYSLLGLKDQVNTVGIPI
Procedure for estrogen receptor: Estrogen receptor activity was measured using ERE-TK-CAT vector (which encodes a single ERE; a generous gift from Dr. Nakshatri, Indiana University School of Medicine) in the unstimulated state, after estradiol (10^−8 M) stimulation and tamoxifen (10^−6 M) inhibition. Cells were plated in phenol red free, charcoal stripped sera for 2 days and transfected with ERE-TK-CAT (5 μg) using calcium phosphate method. The β-galactosidase expression vector RSV/β-galactosidase (2 μg, Dr. Nakshatri's gift) was cotransfected as a control. Fresh media including the appropriate selection drugs were added 24 hours after transfection. Cells were harvested after 24 hours and CAT activity was evaluated as described (Nakshatri et al., 1997, Mol. Cell. Biol. 17: 3629-39).

For `CC/C(=C(\c1ccccc1)c1ccc(OCCN(C)C)cc1)c1ccccc1` [tamoxifen], the “Estrogen receptor activity (CAT)” value in the assay on estrogen receptor is recorded as “remained sensitive to tamoxifen”. The inhibition – broadly, the change of the read-out against control, counted positive when it falls – at 1 µM with control MCF-7 cells (Homo sapiens, MCF7, matched control MCF-7 cells, tamoxifen 1 μM (FIG. 10C), read-out: Inhibition of soft agar colonization) turned out to be 75%; with MCF-7^EphA2 cells [1] (336 h, MCF-7^EphA2 cells, 1 μM tamoxifen, 14 days (FIG. 8A), read-out: Inhibition of soft agar colonization), 25%. For the same molecule, the “Reduction of soft agar colonization” value in the assay with control MCF-7 cells (control MCF-7 cells, 1 μM tamoxifen, 14 days (FIG. 8A)) was “at least 60%”. In addition, the “Decrease in soft agar colonization” value in the assay with MCF-7^EphA2 cells [1] (MCF-7^EphA2 cells, tamoxifen 1 μM and/or EA5 10 μg/ml (FIG. 10C)) is recorded as 25%. Moreover, the “Sensitivity of tumorigenic potential to tamoxifen” value in the assay with MCF-7^EphA2 cells [2] was “less sensitive to tamoxifen”.
As for `C[C@]12CC[C@@H]3c4ccc(O)cc4CC[C@H]3[C@@H]1CC[C@@H]2O` [estradiol, 17β-estradiol, reference compound], the “Effect of excess estradiol on tamoxifen inhibition of soft agar colonization” value with MCF-7^EphA2 cells [1] (1 μM tamoxifen and 1 μM 17β-estradiol, MCF-7 or MCF-7^EphA2 cells (FIG. 8A)) is “overcame the inhibitory effects of tamoxifen”.

B1: EA2: EphA2 agonistic monoclonal antibody; hybridoma strain EA2.31, ATCC PTA-4380; VL SEQ ID NO:1, VH SEQ ID NO:5 (antibody, listed as Homo Sapiens, V domains shown)
VH: DVKLVESGGGLVKPGGSLKLSCAASGFTFSSYTMSWVRQTPEKRLEWVATISSGGTYTYYPDSVKGRFTISRDNAKNTLYLQMSSLKSEDTAMYYCTREAIFTYWGQGTLVTVSA
VL: DIKMTQSPSSMYASLGERVTITCKASQDINNYLSWFQQKPGKSPKTLIYRANRLVDGVPSRFSGSGSGQDYSLTISSLEYEDMGIYYCLKYDEFPYTFGGGTKLEIK
For B1, the EphA2 phosphorylation entry with EphA2 [3] (10 minutes at 37° C.) is on record as “increase in phosphorylation”. In the assay with EphA2 [3] (5 hours at 37° C.), the EphA2 protein degradation result is “degradation of the EphA2 protein”. The “Cell growth in soft agar (colonies per high-powered field)” value in [4] is given as “inhibited cell growth in soft agar”. The EphA2 protein levels entry with EphA2 [5] (30 μg/ml, 24 hours at 37° C.) was “decrease”. Further, the “Levels of EphA2 phosphorylation” value in the assay with EphA2 [5] (8 minutes at 37° C., phosphotyrosine western blot) is reported as “increase”. Further, in the assay with EphA2 [6], the “Binding to malignant MDA-MB-231 vs benign MCF-10A cells” value was “more strongly”.

B2: Ephrin A1-Fc: Fc form of the EphA2 ligand Ephrin A1, used biotinylated or unlabeled (protein)
chain: DRHTVFWNSSNPKFRNEDYTIHVQLNDYVDIICPHYEDHSVADAAMEQYILYLVEHEEYQLCQPQSKDQVRWQCNRPSAKHGPEKLSEKFQRFTPFTLGKEFKEGHSYYYISKPIHQHEDRCLRLKVTVSGKITHSPQAHDNPQEKRLAADDPEVRVLHSIGHS
modifications: left off: a dimerising Fc or GST
notes: Fc form of the EphA2 ligand Ephrin A1, used biotinylated or unlabeled
As for B2, the “Amount of biotinylated protein bound to EphA2-Ephrin A1-Fc complex” value in assay [7] is recorded as “Very little additional Ephrin A1-Fc bound”. For the same molecule, the “Displacement of labeled EA5 by unlabeled competitor” value in assay [8] is “did not significantly displace labeled EA5”.
